Experimental data published in publication PMC6092394.

How the values were obtained:
[1] = target: TRPC5, CFP- or YFP-tagged (UniProt Q9QX29); assay: FRET or BRET; three-cube FRET in living cells expressing Gαq (WT)-YFP, M3 and TRPC1α with TRPC4β-CFP or CFP-TRPC5; after stimulation with 100 μM CCh
[2] = target: TRPC4β, CFP- or YFP-tagged (UniProt Q9QUQ5); assay: as above
Sequence of UniProt Q9QUQ5 (Q9QUQ5 other isoform, or with tags, fused parts or gaps): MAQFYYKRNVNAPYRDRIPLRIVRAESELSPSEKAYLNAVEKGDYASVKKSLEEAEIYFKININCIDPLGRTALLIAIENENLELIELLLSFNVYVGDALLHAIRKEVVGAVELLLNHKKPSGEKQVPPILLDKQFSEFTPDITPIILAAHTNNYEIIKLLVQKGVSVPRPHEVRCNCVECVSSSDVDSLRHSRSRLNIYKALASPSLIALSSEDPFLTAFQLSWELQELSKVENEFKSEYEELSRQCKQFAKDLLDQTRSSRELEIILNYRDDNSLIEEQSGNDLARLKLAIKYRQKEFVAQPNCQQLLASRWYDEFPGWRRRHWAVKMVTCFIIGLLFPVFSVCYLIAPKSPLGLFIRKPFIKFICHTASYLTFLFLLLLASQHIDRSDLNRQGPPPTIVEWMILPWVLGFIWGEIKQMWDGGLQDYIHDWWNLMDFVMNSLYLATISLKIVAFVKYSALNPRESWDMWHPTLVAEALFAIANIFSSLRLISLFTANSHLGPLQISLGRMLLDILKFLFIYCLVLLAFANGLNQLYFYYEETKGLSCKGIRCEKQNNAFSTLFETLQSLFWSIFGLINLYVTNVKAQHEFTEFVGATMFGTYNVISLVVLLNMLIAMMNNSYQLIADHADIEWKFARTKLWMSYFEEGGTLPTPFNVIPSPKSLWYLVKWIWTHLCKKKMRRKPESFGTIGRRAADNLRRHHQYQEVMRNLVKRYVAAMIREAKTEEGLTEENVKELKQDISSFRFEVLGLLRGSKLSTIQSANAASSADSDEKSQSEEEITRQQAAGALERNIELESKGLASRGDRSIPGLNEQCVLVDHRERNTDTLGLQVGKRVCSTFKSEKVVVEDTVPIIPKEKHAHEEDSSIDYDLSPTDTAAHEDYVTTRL

Sequence of UniProt Q9QX29 (Q9QX29 whole entry): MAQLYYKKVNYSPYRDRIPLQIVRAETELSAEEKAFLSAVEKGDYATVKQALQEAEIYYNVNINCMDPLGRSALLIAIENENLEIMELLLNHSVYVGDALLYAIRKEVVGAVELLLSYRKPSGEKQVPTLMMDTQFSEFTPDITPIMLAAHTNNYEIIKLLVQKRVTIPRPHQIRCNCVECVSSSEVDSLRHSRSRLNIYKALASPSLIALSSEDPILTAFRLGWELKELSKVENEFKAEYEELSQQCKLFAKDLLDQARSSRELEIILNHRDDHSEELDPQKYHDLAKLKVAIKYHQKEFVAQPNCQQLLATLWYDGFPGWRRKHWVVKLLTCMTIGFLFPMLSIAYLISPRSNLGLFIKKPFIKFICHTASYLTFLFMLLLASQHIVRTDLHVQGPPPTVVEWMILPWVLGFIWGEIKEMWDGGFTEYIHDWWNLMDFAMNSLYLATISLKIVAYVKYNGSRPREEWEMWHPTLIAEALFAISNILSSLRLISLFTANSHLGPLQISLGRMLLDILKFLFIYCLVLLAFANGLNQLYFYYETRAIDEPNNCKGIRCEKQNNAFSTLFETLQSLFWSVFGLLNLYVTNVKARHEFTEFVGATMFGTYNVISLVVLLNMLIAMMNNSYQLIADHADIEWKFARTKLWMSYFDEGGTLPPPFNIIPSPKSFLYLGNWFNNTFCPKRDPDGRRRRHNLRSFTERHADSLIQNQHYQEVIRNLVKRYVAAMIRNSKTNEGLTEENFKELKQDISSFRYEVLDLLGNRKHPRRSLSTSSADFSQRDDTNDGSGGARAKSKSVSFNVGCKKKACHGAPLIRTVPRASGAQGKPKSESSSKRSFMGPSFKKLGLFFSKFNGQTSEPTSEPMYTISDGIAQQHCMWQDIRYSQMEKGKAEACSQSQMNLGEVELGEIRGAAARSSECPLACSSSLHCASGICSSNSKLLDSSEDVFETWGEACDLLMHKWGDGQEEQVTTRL

FRET efficiency (after 100 μM CCh) [1]: 15.9% | FRET efficiency (after 100 μM CCh) [2]: 8.8%
Substance: Gαq (WT)-YFP (from UniProt P50148 1-359) (natural protein)
